Measured values taken from publication PMC3696110, “Hsp70 Oligomerization Is Mediated by an Interaction between the Interdomain Linker and the Substrate-Binding Domain” (PLoS ONE, 2013).

Molecular target: T1, SBD641 (human Hsp70 residues 384-641) (human, UniProt P0DMV8 384-641)
T1 construct: Thrombin cleavage of the His tag is stated as >99% for all variants; also called full-length SBD; not shown: His6, N-terminal, cleaved
Assay: native MS; nESI-MS of SBD641 in the presence of NR peptide at a 1:1 molar ratio; 150 mM ammonium acetate, pH 7.4
Conditions: both partners purified

T1 sequence (P0DMV8 384-641): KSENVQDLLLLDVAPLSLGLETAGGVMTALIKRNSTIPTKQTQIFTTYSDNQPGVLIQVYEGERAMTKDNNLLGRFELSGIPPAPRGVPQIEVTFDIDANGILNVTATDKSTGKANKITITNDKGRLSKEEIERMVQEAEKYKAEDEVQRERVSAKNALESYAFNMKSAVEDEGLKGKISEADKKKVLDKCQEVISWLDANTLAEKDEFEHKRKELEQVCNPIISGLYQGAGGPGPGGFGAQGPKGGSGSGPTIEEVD

binding result: binds
B1: NR peptide (NRLLLTG), non-dansylated (peptide)
peptide: NRLLLTG
notes: model Hsp70 substrate peptide; the peptide of that experiment may have carried the dansyl group (surmise); also called ND-NR; source: synthetic peptide (Genemed Synthesis Inc.)
